Source: patent publication US20130295090A1 (US Dept. of Health and Human Services, published 2013)
Like-named read-outs stand apart in the source and are kept apart here.

B1: Fab A3 (Fab, V domains shown)
VH: EVQLLESGAEVKKPGSSVRISCKVSGTPYSSYVMNWVRQAPGQGLEWMGVFVPSLDRALYAQNFQGRLSITADTTTTYMELTSLKFEDTAVYYCATDFSVGWLRPLDRWGQGTLVTVSS
VL: ELQMTQSPSSLSASVGDRVTITCRASQGISNYLAWYQQKPGKAPKLLIYYASRLESGVPSRFSGSGSGTDYTLTISSLQPEDFATYYCQQYNSNPFTFGPGTKVDIKR
B2: Fab E3 (Fab, V domains shown)
VH: EVQLLESGPGLVRPSQTLSLTCAVSGASISGPLSYWTWIRQSPGKKMEHIGSMFYSGNTYYNPSLKGRITMSVDTSRNQFSLNLNSVTVADTAVYFCARRRETELFGLPIDYWGQGILVTVSS
VL: ELTQSPATLSVSPGERATLSCRASERISSSYLSWYQQKPGQAPRLLMYGTSTRATGIPARFSGSGSGTDFTLTISSLQPEDFAVYFCQQDYNLPWTFGQGTKLEIKR
B3: humanized MAb A3 (antibody, V domains shown)
VH: B1 VH
VL: B1 VL
B4: humanized MAb B2 (antibody, V domains shown)
VH: VQLLEQSGSEVKKPGASVKVSCKASGYPFTDYAMSWVRQAPGQGLEYMGWIFTNSGNPTYAPGFAGRFVFSLDISVNTAYLHIDSLKPEDTAVYYCARGIVTPAASGDYFDSWGQGTLVTVSS
VL: ELVLTQSPSSLSASIGDRVTITCRASQHISSWLAWYQQKPGKAPKPLIYAASSLKSGVPSRFSGSGSGTDFTLTISGLQPEDFATYYCQQYENSPVTFGGGTKVEIKR
B5: humanized MAb E3 (antibody, V domains shown)
VH: B2 VH
VL: B2 VL
B6: Fab B2 (Fab, V domains shown)
VH: B4 VH
VL: B4 VL

Columns and labels:
[1] = target: T1, JEV strain SA14-14-2 envelope (E) protein on virions (Japanese encephalitis virus strain …, UniProt P0DOH7 295-794); experiment: ELISA on JEV virions captured with HMAF, half-maximal binding, Fab
[2] = target: T1, JEV strain SA14-14-2 envelope (E) …; experiment: ELISA on JEV virions, half maximum binding (FIG. 4A)
[3] = target: T1, JEV strain SA14-14-2 envelope (E) …
[4] = target: T1, JEV strain SA14-14-2 envelope (E) …; experiment: ELISA, virion-coated plate; initial Fab ~100 µg/ml
[5] = target: T1, JEV strain SA14-14-2 envelope (E) …; experiment: cell-based or functional assay
[6] = target: T2, recombinant JEV N-terminal 80% E protein (Japanese encephalitis virus strain …, UniProt P0DOH7 295-692); experiment: SPR (Biacore 3000), recombinant E immobilized, Fab in solution
[7] = target: T1, JEV strain SA14-14-2 envelope (E) …; experiment: ELISA on JEV SA14-14-2 virions captured with HMAF
[8] = target: T1, JEV strain SA14-14-2 envelope (E) …; remark: listed apart in the source
[9] = target: T1, JEV strain SA14-14-2 envelope (E) …; experiment: cell-based or functional assay; remark: listed apart in the source
[10] = target: E protein of wild type JEV strain JE B1034/8 (genotype II) (Japanese encephalitis virus strain JE …); experiment: cell-based or functional assay
[11] = target: T1, JEV strain SA14-14-2 envelope (E) …; experiment: cell-based or functional assay; remark: listed apart in the source
[12] = target: E protein of wild type JEV strain JE 1991 (genotype I) (Japanese encephalitis virus strain JE …); experiment: cell-based or functional assay
[13] = target: E protein of wild type JEV strain JKT 9092 (genotype IV) (Japanese encephalitis virus strain JKT …); experiment: cell-based or functional assay
[14] = target: E protein of wild type JEV strain Beijing (genotype III) (Japanese encephalitis virus strain …); experiment: cell-based or functional assay
[15] = target: T1, JEV strain SA14-14-2 envelope (E) …; experiment: cell-based or functional assay; remark: listed apart in the source
[16] = target: T1, JEV strain SA14-14-2 envelope (E) …; experiment: ELISA on JEV virions captured with HMAF, half-maximal binding, MAb
[17] = target: T1, JEV strain SA14-14-2 envelope (E) …; remark: listed apart in the source
[18] = target: T2, recombinant JEV N-terminal 80% E protein; experiment: SPR, recombinant E immobilized

Row | Binder | Kd [1] [nM] | EC50 [2] [nM] | ELISA titer (1/log10 dilution) [4] [log10 reciprocal dilution] | PRNT50 titer [5] [nM] | Kd [6] [nM] | koff [6] [s⁻¹] | kon [6] [M⁻¹ s⁻¹] | EC50 (read off the curve) [7] [nM] | PRNT50 [9] [µg/mL] | PRNT50 titer [10] [nM] | PRNT50 titer [11] [nM] | PRNT50 titer [12] [nM] | PRNT50 titer [13] [nM] | PRNT50 titer [14] [nM] | occupancy of accessible antibody sites on the virion for neutralization [15] [%] | also measured
1 | B1 | 0.45 | 0.45 | 4.7 | 2.55 | 0.72 | 2.8e-05 | 40000 | ~0.5 |  |  |  |  |  |  |  | IC50 (read off the curve) [3]: ~6 nM
2 | B2 | 0.98 | 0.98 | 4.2 | 84.9 | 0.35 | 3.6e-05 | 100000 | ~1 |  |  |  |  |  |  |  | IC50 (read off the curve) [8]: ~7 nM
3 | B3 |  |  |  |  |  |  |  |  | 0.04 | 0.04 | 0.2 | 0.04 | 0.07 | 0.2 | 45 | 
4 | B4 |  |  |  |  |  |  |  |  | 0.005 | 0.02 | 0.03 | 0.02 | 2 | 0.02 | ~28 | 
5 | B5 |  |  |  |  |  |  |  |  | 0.09 | 0.14 | 0.93 | 0.21 | 0.36 | 0.71 | 66 | Kd [16]: 0.31 nM
6 | B6 | 0.28 | 0.28 | 4.2 | 0.25 | 110 | 0.0046 | 42000 | ~0.2 |  |  |  |  |  |  |  | IC50 (read off the curve) [17]: ~5 nM; fold faster off-rate than Fab A3 or E3 [18]: ≥ 120 fold; fold weaker Kd than Fab A3 or E3 [18]: ≥ 150 fold
